These results are taken from US20090258005A1 (TRUBION PHARMACEUTICALS, published 2009).

The target of assay [1] is T1, Her008P, full-length extracellular domain (ECD) of Her2 expressed with a mIgG2a Fc tail (human; murine, UniProt P04626 23-652).
T1 construct: also called SIIS; SIIS (Dimer); not shown: murine IgG2a Fc tail
As to the kind of experiment: ELISA, soluble scFv on ECD.

In assay [2] the target is T2, EQR (Her017P).
T2 construct: also called HER2 EQR-Fc; HER2 EQR DIMER
Description: ELISA, soluble scFv on EQR.
Description: (§1) Various Her2-Fc proteins (e.g., Her008P, Her017P, Her018P, etc.) or a negative control murine IgG2a protein were coated overnight at 4° C. on 96-well Nunc Maxisorp at a concentration of 1 ug/ml in PBS. Alternatively, pre-blocked streptavidin-coated plates (Greiner) were coated with biotinylated Her2-Fc proteins for 1 hour at room temperature at a concentration of 1 ug/ml in block buffer (3% skim milk/1% BSA/PBS). Plates were washed three times using PBS and blocked for 1 hour at room temperature in 3% skim milk/1% BSA/PBS. Phage or peripreps were prepared as described above and were blocked for 1 hour at room temperature in an equal volume of 6% skim milk/1% BSA/PBS. Blocked plates were washed five times with PBS and 50 μl/well of blocked phage or periprep were transferred to the appropriate plates and incubated for 1 hour at room temperature. […] Plates were incubated for a further hour at room temperature and washed seven times with PBS. Signal was developed using TMB, the reaction stopped with H₂SO₄ and the absorbance read at 450 nm on an Envision plate reader (Perkin Elmer).

Assay [3] deals with T3, Her018P, Her2 ECD with a deletion in the CR2 (Domain IV) region expressed with a mIgG2a Fc tail (human; murine, UniProt P04626 23-599).
T3 construct: Shares the name HER018 with the trastuzumab SMIP; also called 1.8 (Dimer); dimeric HER018; not shown: murine IgG2a Fc tail (C-terminal dimerising carrier) and any junction residues
Description: ELISA, soluble scFv on Her018.

Assay [4] concerns the target T4, L1-CR1 (Her054P).
T4 construct: also called 1.0
T4 chain: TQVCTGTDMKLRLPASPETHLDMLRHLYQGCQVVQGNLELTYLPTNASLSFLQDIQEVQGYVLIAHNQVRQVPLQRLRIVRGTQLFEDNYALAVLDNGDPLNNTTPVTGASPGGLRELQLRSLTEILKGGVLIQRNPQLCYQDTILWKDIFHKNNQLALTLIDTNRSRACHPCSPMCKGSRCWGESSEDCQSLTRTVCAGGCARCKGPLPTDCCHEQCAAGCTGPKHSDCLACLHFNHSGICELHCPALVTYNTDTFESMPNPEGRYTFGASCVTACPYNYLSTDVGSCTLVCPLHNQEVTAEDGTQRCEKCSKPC
Description: ELISA, soluble scFv on L1-CR1.
Description: as §1

The target of assay [5] is T5, ECD region of Her2 (human, UniProt P04626 23-652).
T5 construct: extracellular domain; Generic target of the scFv screen; also called extracellular domain (ECD) of Her2 (ErbB2)
As to the kind of experiment: screening after three rounds of phage selection, soluble periplasmic scFv.

Assay [6] has as its target T6, Full length HER2 (human, UniProt P04626 23-1255).
T6 construct: Endogenous HER2 on SKBR3, BT474, 22rv1, MDA-MB-175, MDA-MB-453 and MDA-MB-361 cells; also called HER2 on the cell surface; ErbB2
As to the kind of experiment: cell ELISA, phage scFv, SKBR3 cells.

Assay [7] has as its target T5, ECD region of Her2. Description: cell ELISA, phage scFv, CHO-ECD cells.
Description: 2×10⁴ CHOK1 cells/well were seeded in a 96-well tissue culture plate on Day 1 and incubated at 37° C./5% CO₂ for 2-4 days until a confluent monolayer was observed. Cells were washed five times with PBS (+ Ca/Mg ions) and blocked for 1 hour at room temperature with 3% skim milk/1% BSA/PBS (+ Ca/Mg ions). Phage or peripreps were prepared as described above and were blocked for 1 hour at room temperature in an equal volume of 6% skim milk/1% BSA/PBS (+ Ca/Mg ions). Blocked plates were washed five times with PBS (+ Ca/Mg ions) and 50 μl/well of blocked phage or periprep were transferred to the appropriate plates and incubated for 1 hour at room temperature. […] Plates were incubated for a further hour at room temperature and washed ten times with PBS (+ Ca/Mg ions). Signal was developed using TMB, the reaction stopped with H₂SO₄ and the absorbance read at 450 nm on an ENVISION plate reader (Perkin Elmer).

B1: S1R3B1_BMV_1A1 (scFv, V domains shown)
VH: EVQLVQSGAEVKEPGASVKVSCKASGYDFSNYGFSWVRQAPGQGLEWMGWISSYNGYTNYAQRLQGRVTMTTDTSTSTAYMELRSLRSDDTAVYYCARDRGLGNWYFDLWGQGTLVTVSS
VL: QSVLTQPASVSGSPGQSITISCTGTSSDVGGYNYVSWYQQHPGKAPKLMIYEGSKRPSGVSNRFSGSKSGNTASLTISGLQAEDEADYYCSSYTTRSTRVFGGGTKLTVL
notes: scFv, soluble from bacterial periplasm in the screen; also called Her2_S1R3B1_BMV_1A1
For B1, the binding result in assay [1] is recorded as “binds”; in assay [2], “binds”; in assay [3], “no binding”; in assay [4] it was “no binding”; in assay [5] it was “binds”.

B2: S1R3B1_BMV_1G11 (scFv, V domains shown)
VH: QVQLVQSGGGLVQPGGSLRLSCAASGFTFSTYAMSWARQAPGKGLEWVSSISGDGGRILDADSAKGRFTISRDNSKNTLYLQMNGLRVEDTALYYCARADGNYWGRGTMVTVSS
VL: QSVLTQPASVSGSPGQSITISCTGTSSDVGGYNYVSWYQQHPGKAPKLMIYEGSKRPSGVSNRFSGSKSGNTASLTISGLQAEDEADYYCSSYTTRSTRVFGGGTKLTVL
notes: scFv, soluble from bacterial periplasm in the screen; also called Her2_S1R3B1_BMV_1G11
As for B2, the binding result in assay [1] was “binds”; in assay [2], “no binding”; in assay [3], “no binding”; in assay [4], “no binding”; in assay [5] it was “binds”.

B3: S1R3C1_CS_1D3 (scFv, V domains shown)
VH: QVQLQESGPGLVKPSQTLSLTCGISGDSVSSNSAAWNWIRQSPTRGLEWLGRTYYRSSWYHNYAPSMNSRLTIIADTSKNQFSLQLNSVTPEDTAVYYCASGWAFDVWGRGTLVTVSS
VL: QSVLTQPPSASGSPGQSVTISCTGTSSDVGAYDFVSWYQQHPGKAPKLMIYEVNKRPSGVPDRFSGSKSGNTASLTVSGLQAEDEADYYCSSYAGSKNLLFGGGTKLTVL
notes: scFv, on phage in the screen; also called Her2_S1R3C1_CS_1D3
B3: the binding result is given as “binds” in assay [1]; “binds” in assay [2]; “no binding” in assay [3]; “no binding” in assay [4]; “binds” in assay [6]; “binds” in assay [7].

B4: S1R3A1_DP47_1A6 (scFv, V domains shown)
VH: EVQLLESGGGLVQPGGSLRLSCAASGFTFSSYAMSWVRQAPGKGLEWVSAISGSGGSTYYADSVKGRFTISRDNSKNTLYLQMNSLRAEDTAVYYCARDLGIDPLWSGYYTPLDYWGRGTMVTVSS
VL: HVILTQPPSASGTPGQRVTISCSGSSSNIGSNSVSWYQQLPGTAPKLLMYTNNQRPSGVPDRFSGSKSGTSASLAISGLQSEDEADYYCATWDASLNTWVFGGGTKVTVL
notes: scFv, soluble from bacterial periplasm in the screen; also called Her2_S1R3A1_DP47_1A6
On to B4, for which the binding result in assay [1] is “binds”; in assay [2], “binds”; in assay [3], “binds”; in assay [4], “no binding”; in assay [5] it was “binds”.

B5: S1R3A1_BMV_1F3 (scFv, V domains shown)
VH: EVQLVESGEGLVKPGGSLRLSCTASGFTFRSYSLNWVRQAPGQGLEWVSSISSTSTYIYYADSVKGRFTISRDDAKNTLYLQMNSLRAEDTAAYYCVRLGSGGGYFPDYWGRGTLVTVSS
VL: SSELTQDPAVSVALGQTVRITCQGDSLRSYYASWYQQKPGQAPVLVIYGKNNRPSGIPDRFSGSSSGNTASLTITGAQAEDEADYYCNSRDSSGNHVVFGGGTKLTVL
notes: scFv, soluble from bacterial periplasm in the screen; also called Her2_S1R3A1_BMV_1F3
Turning to B5, the binding result in assay [1] is reported as “binds”; in assay [2], “binds”; in assay [3], “binds”; in assay [4], “no binding”; in assay [5], “binds”.

B6: S1R3B1_BMV_1H5 (scFv, V domains shown)
VH: QVQLQESGGGVVQPGGSLRLSCAASGFTFSGYGMHWVRQAPGKGLEWVASVRNDGSNTYYTDSVKDRFTISRDNTKNTLYLQMNSLRAEDTAVYYCAKSRRVMYGTSYYFDYWGRGTLVTVSS
VL: SSELTQDPAVSVALGQTVRITCQGDSLRSYYASWYQQKPGQAPVLVIYGKNNRPSGIPDRFSGSSSGNTASLTITGAQAEDEADYYCNSRDSSGNHVVFGGGTKLTVL
notes: scFv, soluble from bacterial periplasm in the screen; also called Her2_S1R3B1_BMV_1H5
As to B6, the binding result was “binds” in assay [1]; “no binding” in assay [2]; “no binding” in assay [3]; “no binding” in assay [4]; “binds” in assay [5].

B7: S1R3B1_BMV_1H9 (scFv, V domains shown)
VH: QVQLQESGAGLVKPSGTLSLTCAVSGGSISSGNWWSWVRQPPGKGLEWIGEISHSGSTNYNPSLKSRVTISVDKSKNQFSLNLSSVTAADTAVYYCARVRGTVGDTRGPDYWGQGTLVTVSS
VL: SSELTQDPAVSVALGQTVRITCQGDSLRSYYASWYQQKPGQAPVLVIYGKNNRPSGIPDRFSGSSSGNTASLTITGAQAEDEADYYCNSRDSSGNHVVFGGGTKLTVL
notes: scFv, soluble from bacterial periplasm in the screen; also called Her2_S1R3B1_BMV_1H9
On to B7, for which the binding result in assay [1] is on record as “binds”; in assay [2] it was “no binding”; in assay [3] it was “no binding”; in assay [4] it was “no binding”; in assay [5], “binds”.

B8: S1R3B2_BMV_1G2 (scFv, V domains shown)
VH: QVQLVQSGAEVKKPGSSVKVSCKASGYTFTSYGISWVRQAPGQGLEWMGWISAYNGNTNYAQKLQGRVTMTTDTSTSTAYMELRSLRSDDTAVYYCARVPGVSGSYPDYYYMDVWGKGTLVTVSS
VL: DIQMTQSPSTLSASIGDRVTITCRASEGIYHWLAWYQQKPGKAPKLLIYKASSLASGAPSRFSGSGSGTDFTLTISSLQPDDFATYYCQQYSNYPLTFGGGTKLEIK
notes: scFv, on phage in the screen; also called Her2_S1R3B2_BMV_1G2
Regarding B8, the binding result in assay [1] is “binds”; in assay [2] it was “binds”; in assay [3], “binds”; in assay [4], “no binding”; in assay [6], “binds”; in assay [7], “binds”.

B9: S1R3A1_CS_1B9 (scFv, V domains shown)
VH: KVQLVQSGTEVKKPGESLKISCQGSGYRFSSDWIAWVRQMPGKGLEWMGIVYPGDSDTRYSPSFQGQVTISADKSISTAYLQWSGLKASDTAKYYCARVQQAVGAKGYAMDVWGKGTLVTVSS
VL: QTVVIQEPSFSVSPGGTVTLTCGLSSGSVSTSYYPSWYRQTPGQAPHTLIHNTKIRSSGVPDRFSGSILGNNAALTITGAQADDESDYYCLLYMGSGIYVFGGGTKLTVL
notes: scFv, soluble from bacterial periplasm in the screen; also called Her2_S1R3A1_CS_1B9
Consider B9, for which the binding result in assay [1], in assay [2], in assay [3] and in assay [5] was “binds” each time.

B10: S1R3A1_CS_1B10 (scFv, V domains shown)
VH: EVQLVQSGAEVKKPGASVRVSCKGSGNTFTGHYIHWVRQAPGQGLEWLGWIDPNTGDIQYSENFKGSVTLTRDPSINSVFMDLIRLTSDDTAMYYCAREGAGLANYYYYGLDVWGRGTMVTVSS
VL: QTVVLQEPSFSVSPGGTVTLTCGLNFGSVSTAYYPSWYQQTPGQAPRTLIYGTNIRSSGVPDRFSGSIVGNKAALTITGAQTEDESDYYCALYMGSGMLFGGGTKVTVL
notes: scFv, soluble from bacterial periplasm in the screen; also called Her2_S1R3A1_CS_1B10
B10: the binding result in assay [1], in assay [2], in assay [3] and in assay [5] was “binds” each time.

B11: S1R2A_CS_1D3 (scFv, V domains shown)
VH: EVQLVQSGAEVKKPGASVKVSCKASGYSFTAFYIHWVRQAPGQGLEYLGWIDPNTGATKYAQRFQGRVIMTWDTSITTATMELSRLTSDDSAVYYCVRDLREWGYELSVEYWGRGTLVTVSS
VL: not shown
notes: scFv, on phage in the screen
In the case of B11, the binding result in assay [2] was “no binding”; in assay [3], “no binding”; in assay [4], “no binding”; in assay [6], “binds”.
